In series [1] the target is T1, Boc-Glu(OBzl)-Ala-Arg-MCA.
T1 chain: EAR

Series [2] concerns the target D4K-cleavage site-containing control protein (Novagen).
Series [3] deals with T2, Gly-Asp-Asp-Asp-Asp-Lys-β-naphthylamide.
T2 chain: GDDDDK

For series [4], the target named is Human plasma fibronectin, P02751.
In a further series the target is T3, Pro-Phe-Arg-MCA.
T3 chain: PFR

In another series the target is T4, Z-Phe-Arg-MCA.
T4 chain: FR

The next series deals with T5, human fibrinogen, P02671.
T5 chain 1: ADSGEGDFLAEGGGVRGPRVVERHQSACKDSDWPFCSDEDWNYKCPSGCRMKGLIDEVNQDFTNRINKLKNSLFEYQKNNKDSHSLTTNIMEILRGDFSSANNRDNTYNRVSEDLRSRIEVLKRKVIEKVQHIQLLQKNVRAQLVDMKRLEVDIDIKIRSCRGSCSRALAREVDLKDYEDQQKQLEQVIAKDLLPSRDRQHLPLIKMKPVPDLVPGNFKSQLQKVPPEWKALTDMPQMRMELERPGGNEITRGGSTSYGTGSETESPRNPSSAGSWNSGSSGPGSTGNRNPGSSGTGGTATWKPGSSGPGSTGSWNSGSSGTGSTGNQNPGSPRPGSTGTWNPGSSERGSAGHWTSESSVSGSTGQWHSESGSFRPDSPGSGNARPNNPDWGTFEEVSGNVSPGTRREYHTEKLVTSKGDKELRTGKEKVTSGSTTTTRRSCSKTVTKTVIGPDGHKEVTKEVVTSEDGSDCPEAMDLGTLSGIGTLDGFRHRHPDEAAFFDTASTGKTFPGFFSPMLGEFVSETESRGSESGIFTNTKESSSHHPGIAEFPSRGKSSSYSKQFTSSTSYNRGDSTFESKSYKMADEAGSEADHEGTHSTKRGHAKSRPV
T5 chain 2: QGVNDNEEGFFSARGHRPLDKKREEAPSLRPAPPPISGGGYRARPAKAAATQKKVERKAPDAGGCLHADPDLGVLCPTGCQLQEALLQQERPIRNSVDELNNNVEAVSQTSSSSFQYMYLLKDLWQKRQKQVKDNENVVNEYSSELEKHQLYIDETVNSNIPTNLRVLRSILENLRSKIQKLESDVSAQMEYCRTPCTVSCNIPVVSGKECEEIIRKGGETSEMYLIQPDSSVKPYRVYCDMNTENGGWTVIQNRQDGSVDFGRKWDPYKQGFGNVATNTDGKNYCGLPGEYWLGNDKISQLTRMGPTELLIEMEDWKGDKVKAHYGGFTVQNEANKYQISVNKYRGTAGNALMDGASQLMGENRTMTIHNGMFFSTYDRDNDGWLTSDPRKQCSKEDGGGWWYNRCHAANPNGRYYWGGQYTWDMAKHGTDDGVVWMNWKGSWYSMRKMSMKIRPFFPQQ
T5 chain 3: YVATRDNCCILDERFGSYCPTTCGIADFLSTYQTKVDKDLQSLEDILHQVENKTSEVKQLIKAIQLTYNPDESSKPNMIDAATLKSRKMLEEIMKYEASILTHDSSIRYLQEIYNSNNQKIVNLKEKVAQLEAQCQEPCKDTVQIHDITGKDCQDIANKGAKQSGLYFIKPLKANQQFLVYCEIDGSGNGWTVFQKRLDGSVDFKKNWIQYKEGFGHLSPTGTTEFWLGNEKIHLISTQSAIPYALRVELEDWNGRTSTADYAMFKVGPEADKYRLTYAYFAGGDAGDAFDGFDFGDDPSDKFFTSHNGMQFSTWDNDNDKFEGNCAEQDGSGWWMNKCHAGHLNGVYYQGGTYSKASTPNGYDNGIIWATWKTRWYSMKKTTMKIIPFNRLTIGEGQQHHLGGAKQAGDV

Series [5] has as its target T6, human high-molecular-weight (HMW) kininogen, P01042.
T6 chain: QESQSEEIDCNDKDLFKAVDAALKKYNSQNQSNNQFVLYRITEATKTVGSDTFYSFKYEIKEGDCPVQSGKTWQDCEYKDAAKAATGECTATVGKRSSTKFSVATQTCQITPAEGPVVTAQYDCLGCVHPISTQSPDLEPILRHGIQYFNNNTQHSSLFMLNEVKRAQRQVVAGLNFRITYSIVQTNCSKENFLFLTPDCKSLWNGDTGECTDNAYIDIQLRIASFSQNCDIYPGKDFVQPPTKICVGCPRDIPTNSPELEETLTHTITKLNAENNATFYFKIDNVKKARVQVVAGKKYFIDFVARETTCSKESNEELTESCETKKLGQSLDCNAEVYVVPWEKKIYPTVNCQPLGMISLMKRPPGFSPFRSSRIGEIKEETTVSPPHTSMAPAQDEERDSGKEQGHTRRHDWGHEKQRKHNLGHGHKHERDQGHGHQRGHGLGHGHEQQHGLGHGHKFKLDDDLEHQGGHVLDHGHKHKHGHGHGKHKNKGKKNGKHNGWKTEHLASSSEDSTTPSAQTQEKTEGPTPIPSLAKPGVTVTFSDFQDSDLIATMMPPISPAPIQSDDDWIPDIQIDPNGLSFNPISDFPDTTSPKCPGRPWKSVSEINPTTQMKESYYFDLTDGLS

Series [6] concerns the target human single-chain tPA fusion protein with N-terminal His-tag/EP-cleavage site, P00750.
Series [7] deals with recombinant fusion protein of Medaka gelatinase A.
For series [8], the target named is T7, recombinant fusion protein of human kallikrein 8 (hK8), O60259.
T7 sequence (O60259 whole entry, looked up): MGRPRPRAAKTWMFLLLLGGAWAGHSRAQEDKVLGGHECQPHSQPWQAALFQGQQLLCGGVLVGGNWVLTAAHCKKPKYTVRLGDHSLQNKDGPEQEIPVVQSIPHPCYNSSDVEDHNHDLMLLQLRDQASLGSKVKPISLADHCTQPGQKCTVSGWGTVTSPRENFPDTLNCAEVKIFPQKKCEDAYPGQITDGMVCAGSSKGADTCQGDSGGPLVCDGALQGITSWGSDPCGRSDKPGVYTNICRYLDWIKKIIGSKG

Sequence of Human plasma fibronectin, P02751 (P02751 other isoform, or with tags, fused parts or gaps): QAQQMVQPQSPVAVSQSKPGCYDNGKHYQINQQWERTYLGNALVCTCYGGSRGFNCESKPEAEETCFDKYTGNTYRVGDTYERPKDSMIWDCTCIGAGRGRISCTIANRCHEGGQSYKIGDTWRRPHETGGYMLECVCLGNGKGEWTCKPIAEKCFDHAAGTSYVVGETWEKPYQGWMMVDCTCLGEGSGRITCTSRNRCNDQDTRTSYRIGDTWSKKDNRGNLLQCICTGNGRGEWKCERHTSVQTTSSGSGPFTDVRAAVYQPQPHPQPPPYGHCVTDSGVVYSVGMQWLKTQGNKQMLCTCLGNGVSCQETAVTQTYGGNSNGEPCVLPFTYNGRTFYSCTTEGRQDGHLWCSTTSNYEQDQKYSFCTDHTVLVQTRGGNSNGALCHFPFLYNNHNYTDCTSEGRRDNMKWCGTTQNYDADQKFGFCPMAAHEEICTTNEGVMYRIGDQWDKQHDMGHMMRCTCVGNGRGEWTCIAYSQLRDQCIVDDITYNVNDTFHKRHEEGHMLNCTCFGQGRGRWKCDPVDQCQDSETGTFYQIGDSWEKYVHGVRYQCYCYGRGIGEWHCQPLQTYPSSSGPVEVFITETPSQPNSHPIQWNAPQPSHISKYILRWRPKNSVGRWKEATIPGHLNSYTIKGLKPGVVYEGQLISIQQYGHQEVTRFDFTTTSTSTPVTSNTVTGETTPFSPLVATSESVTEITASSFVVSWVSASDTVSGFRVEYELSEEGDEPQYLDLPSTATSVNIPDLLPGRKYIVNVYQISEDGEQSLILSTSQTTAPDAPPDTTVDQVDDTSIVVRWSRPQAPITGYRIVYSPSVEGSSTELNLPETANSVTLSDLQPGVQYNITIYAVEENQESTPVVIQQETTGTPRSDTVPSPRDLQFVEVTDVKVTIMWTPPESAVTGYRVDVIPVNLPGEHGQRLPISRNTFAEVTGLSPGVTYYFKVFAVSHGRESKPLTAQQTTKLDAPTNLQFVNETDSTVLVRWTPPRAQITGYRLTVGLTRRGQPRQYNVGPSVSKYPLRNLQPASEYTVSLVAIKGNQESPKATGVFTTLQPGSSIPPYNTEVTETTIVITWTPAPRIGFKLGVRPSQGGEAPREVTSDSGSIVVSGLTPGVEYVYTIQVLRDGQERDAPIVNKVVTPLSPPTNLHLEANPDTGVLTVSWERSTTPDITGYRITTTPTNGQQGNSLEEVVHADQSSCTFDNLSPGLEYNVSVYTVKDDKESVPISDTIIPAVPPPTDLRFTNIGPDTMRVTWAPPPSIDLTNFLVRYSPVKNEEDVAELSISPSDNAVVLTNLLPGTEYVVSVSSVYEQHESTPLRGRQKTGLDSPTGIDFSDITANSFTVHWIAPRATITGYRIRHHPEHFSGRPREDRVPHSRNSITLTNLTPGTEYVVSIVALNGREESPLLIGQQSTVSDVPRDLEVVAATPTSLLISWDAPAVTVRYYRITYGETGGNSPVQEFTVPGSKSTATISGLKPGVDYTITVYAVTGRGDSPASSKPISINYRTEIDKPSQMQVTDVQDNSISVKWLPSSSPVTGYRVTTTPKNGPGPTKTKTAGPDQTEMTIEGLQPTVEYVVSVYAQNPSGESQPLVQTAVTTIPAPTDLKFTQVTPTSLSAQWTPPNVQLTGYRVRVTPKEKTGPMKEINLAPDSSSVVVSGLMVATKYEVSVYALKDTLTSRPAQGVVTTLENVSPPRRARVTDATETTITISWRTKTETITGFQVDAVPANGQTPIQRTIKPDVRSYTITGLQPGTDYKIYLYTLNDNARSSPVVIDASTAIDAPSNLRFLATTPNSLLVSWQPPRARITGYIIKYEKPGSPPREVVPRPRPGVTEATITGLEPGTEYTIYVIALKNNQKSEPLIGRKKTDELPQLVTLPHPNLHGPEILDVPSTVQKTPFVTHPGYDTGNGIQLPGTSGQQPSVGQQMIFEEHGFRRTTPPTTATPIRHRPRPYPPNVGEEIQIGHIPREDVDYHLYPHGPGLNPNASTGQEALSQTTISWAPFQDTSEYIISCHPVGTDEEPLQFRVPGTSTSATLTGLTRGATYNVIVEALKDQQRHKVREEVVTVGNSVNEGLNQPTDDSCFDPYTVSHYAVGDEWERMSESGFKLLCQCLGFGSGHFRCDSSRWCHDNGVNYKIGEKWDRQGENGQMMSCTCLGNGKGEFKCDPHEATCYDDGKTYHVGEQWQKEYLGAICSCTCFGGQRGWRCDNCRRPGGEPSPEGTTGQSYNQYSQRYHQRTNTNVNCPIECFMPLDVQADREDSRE
Sequence of human single-chain tPA fusion protein with N-terminal His-tag/EP-cleavage site, P00750 (P00750 whole entry, looked up, the tested form may be a part): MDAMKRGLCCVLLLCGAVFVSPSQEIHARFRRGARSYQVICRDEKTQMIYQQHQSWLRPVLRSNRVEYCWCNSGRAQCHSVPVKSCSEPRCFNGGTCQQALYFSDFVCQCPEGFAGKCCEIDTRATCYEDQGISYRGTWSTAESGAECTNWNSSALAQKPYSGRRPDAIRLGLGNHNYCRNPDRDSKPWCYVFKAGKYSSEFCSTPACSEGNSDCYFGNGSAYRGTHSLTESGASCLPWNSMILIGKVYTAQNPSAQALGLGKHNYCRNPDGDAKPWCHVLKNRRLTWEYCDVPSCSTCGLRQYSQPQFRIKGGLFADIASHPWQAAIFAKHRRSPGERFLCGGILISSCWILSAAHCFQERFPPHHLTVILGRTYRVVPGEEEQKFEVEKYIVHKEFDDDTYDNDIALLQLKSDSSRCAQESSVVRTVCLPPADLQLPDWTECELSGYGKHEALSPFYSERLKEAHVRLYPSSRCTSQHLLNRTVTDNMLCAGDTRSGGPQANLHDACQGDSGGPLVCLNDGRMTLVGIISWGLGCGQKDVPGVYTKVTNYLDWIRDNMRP

B1: porcine EP serine protease domain (Ile800 to His1034) (protein)
chain: IVGGNDSREGAWPWVVALYYNGQLLCGASLVSRDWLVSAAHCVYGRNLEPSKWKAILGLHMTSNLTSPQIVTRLIDEIVINPHYNRRRKDSDIAMMHLEFKVNYTDYIQPICLPEENQVFPPGRICSIAGWGKVIYQGSPADILQEADVPLLSNEKCQQQMPEYNITENMMCAGYEEGGIDSCQGDSGGPLMCLENNRWLLAGVTSFGYQCALPNRPGVYARVPKFTEWIQSFLH
For B1, the Michaelis constant (Km) in [1] was 300 µM; in series [3] it was 400 µM; with Pro-Phe-Arg-MCA it was 3900 µM; with Z-Phe-Arg-MCA, 200 µM. Moreover, the catalytic constant (kcat) in [1] was 1.83 s⁻¹; in [3] it was 8.83 s⁻¹; with Pro-Phe-Arg-MCA it was 5 s⁻¹; with Z-Phe-Arg-MCA it was 0.917 s⁻¹. Further, the kcat/Km (mM^-1 · min^-1) in series [1] is 370; in [3], 1300; with Pro-Phe-Arg-MCA it was 77; with Z-Phe-Arg-MCA it was 280. Moreover, the figures for the “cleavage of the fusion protein (SDS-PAGE)” value in series [2], in series [7] and in series [8] were “the mammalian enzymes not only produced the two expected polypeptides but also further degraded the products”, “the fusion protein was extensively digested by mammalian EP serine proteases” and “the porcine protease extensively degraded the substrate”, respectively. The “proteolytic activity (SDS-PAGE)” value (in series [4]; with mouse laminin) was “these substrates were detectably hydrolyzed by the mammalian proteases” in each case. Also, in the series with gelatin, the “proteolytic activity (gelatin zymography)” value is recorded as “these substrates were detectably hydrolyzed by the mammalian proteases”. The “nonspecific proteolytic activity (SDS-PAGE)” value was “both of which were degraded noticeably by mammalian EP proteases” with human fibrinogen, P02671 and “both of which were degraded noticeably by mammalian EP proteases” in series [5]. Also, the “cleavage of the fusion protein (SDS-PAGE/Western blot)” value in series [6] is “but not with mammalian ones, showed two polypeptides (53- and 55-kDa)”.

One may read the Km as the concentration of substrate that gives half-maximal velocity. A word on the kcat: it is the number of substrate molecules converted per active site and unit of time at saturation.

(Values after patent publication US20080213836.)
